Experimental data reported in IntAct's records for PubMed 22982234.

B1: Myosin-binding protein C, cardiac-type (Mus musculus), O70468 (parent)
chain: MPEPGKKPVSAFNKKPRSAEVTAGSAAVFEAETERSGVMVRWQRDGSDITANDKYGLAAEGKRHTLTVRDASPDDQGSYAVIAGSSKVKFDLKVTEPAPPEKAESEVAPGAPEEVPAPATELEESVSSPEGSVSVTQDGSAAEHQGAPDDPIGLFLMRPQDGEVTVGGSIVFSARVAGASLLKPPVVKWFKGKWVDLSSKVGQHLQLHDSYDRASKVYLFELHITDAQTTSAGGYRCEVSTKDKFDSCNFNLTVHEAIGSGDLDLRSAFRRTSLAGAGRRTSDSHEDAGTPDFSSLLKKRDSFRRDSKLEAPAEEDVWEILRQAPPSEYERIAFQHGVEACHRPLKRLKGMKQDEKKSTAFQKKLEPAYQVNKGHKIRLTVELADPDAEVKWLKNGQEIQMSGSKYIFESVGAKRTLTISQCSLADDAAYQCVVGGEKCSTELFVKEPPVLITRSLEDQLVMVGQRVEFECEVSEEGAQVKWLKDGVELTREETFKYRFKKDGRKHHLIINEATLEDAGHYAVRTSGGQSLAELIVQEKKLEVYQSIADLAVGAKDQAVFKCEVSDENVRGVWLKNGKELVPDNRIKVSHIGRVHKLTIDDVTPADEADYSFVPEGFACNLSAKLHFMEVKIDFVPRQEPPKIHLDCPGSTPDTIVVVTGNKLRLDVPISGDPAPTVVWQKTVTQGKKASAGPHPDAPEDAGADEEWVFDKKLLCETEGRVRVETTKDRSVFTVEGAEKEDEGVYTVTVKNPVGEDQVNLTVKVIDVPDAPAAPKISNVGEDSCTVQWEPPAYDGGQPVLGYILERKKKKSYRWMRLNFDLLRELSHEARRMIEGVAYEMRVYAVNAVGMSRPSPASQPFMPIGPPGEPTHLAVEDVSDTTVSLKWRPPERVGAGGLDGYSVEYCQEGCSEWTPALQGLTERRSMLVKDLPTGARLLFRVRAHNVAGPGGPIVTKEPVTVQEILQRPRLQLPRHLRQTIQKKVGEPVNLLIPFQGKPRPQVTWTKEGQPLAGEEVSIRNSPTDTILFIRAARRTHSGTYQVTVRIENMEDKATLILQIVDKPSPPQDIRIVETWGFNVALEWKPPQDDGNTEIWGYTVQKADKKTMEWFTVLEHYRRTHCVVSELIIGNGYYFRVFSHNMVGSSDKAAATKEPVFIPRPGITYEPPKYKALDFSEAPSFTQPLANRSIIAGYNAILCCAVRGSPKPKISWFKNGLDLGEDARFRMFCKQGVLTLEIRKPCPYDGGVYVCRATNLQGEAQCECRLEVRVPQ

Variants of: B1
Conditions: with myh6_mouse Myh6, Q02566
Sequence of myh6_mouse Myh6, Q02566 (Q02566 whole entry): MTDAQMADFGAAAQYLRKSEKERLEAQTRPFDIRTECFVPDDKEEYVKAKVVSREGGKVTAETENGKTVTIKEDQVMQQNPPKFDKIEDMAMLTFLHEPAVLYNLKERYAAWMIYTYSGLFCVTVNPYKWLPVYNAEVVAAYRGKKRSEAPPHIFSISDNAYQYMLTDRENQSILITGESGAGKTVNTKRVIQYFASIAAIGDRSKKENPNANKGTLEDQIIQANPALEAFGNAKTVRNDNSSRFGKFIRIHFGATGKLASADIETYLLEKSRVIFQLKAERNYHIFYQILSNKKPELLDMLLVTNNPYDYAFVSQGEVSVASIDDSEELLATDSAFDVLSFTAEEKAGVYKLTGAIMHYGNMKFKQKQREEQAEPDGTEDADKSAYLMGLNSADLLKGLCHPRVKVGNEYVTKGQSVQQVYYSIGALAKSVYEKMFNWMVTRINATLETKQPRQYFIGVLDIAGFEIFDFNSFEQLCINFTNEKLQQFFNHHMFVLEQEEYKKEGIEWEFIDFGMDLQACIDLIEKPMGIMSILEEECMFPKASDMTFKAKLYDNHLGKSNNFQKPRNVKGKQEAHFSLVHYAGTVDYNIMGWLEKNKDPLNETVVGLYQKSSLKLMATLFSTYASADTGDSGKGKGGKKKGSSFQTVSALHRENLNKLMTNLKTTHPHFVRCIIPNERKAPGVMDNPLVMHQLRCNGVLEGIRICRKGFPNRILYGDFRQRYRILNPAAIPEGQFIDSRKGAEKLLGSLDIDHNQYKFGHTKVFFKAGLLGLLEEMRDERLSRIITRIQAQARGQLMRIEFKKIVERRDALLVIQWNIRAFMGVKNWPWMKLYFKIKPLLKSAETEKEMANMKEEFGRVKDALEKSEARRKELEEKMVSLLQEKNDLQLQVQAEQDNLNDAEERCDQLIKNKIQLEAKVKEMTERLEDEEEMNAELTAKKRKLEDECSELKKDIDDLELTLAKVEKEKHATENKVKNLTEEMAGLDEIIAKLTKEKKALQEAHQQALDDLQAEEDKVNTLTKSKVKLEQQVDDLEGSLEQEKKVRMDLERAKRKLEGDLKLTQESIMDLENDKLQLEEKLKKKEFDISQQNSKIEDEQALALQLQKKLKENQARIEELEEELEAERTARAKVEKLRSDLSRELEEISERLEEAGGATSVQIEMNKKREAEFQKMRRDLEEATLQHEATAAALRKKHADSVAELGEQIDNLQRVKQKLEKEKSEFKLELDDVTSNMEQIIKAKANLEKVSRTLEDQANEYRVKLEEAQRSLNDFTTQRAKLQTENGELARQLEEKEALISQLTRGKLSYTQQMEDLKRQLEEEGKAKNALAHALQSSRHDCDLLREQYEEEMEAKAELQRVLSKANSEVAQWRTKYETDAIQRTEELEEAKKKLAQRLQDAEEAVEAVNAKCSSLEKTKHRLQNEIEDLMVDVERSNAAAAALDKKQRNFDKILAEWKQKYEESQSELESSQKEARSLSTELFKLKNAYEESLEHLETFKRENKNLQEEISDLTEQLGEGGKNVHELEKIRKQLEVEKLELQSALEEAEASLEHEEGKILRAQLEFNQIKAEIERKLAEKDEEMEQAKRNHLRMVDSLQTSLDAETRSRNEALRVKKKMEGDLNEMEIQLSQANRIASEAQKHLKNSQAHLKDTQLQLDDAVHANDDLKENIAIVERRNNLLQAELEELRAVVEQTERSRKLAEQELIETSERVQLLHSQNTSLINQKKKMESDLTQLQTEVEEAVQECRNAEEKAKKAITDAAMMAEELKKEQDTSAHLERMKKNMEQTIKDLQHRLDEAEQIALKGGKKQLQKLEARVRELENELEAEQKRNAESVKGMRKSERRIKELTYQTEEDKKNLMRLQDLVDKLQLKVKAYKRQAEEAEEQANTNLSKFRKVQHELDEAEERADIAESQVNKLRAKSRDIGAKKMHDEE

Row | Variant | effect of a mutation on the interaction
1 | K298A;K299A | disrupting interaction strength
2 | R266A;R270A;R271A | disrupting interaction strength
3 | R279A;R280A;T281A | disrupting interaction strength
4 | K298A;K299A;R300A | disrupting interaction strength

Variants of: B1
Conditions: with actc_mouse Actc1, P68033

Row | Variant | effect of a mutation on the interaction
5 | K188A;K191A;K193A | disrupting interaction strength
6 | R279A;R280A;T281A | disrupting interaction strength
7 | R304A;R305A | disrupting interaction strength
8 | R279A;R280A | disrupting interaction strength
